Reference: article PMC6797613, “Crystal Structure Of Photorespiratory Alanine:Glyoxylate Aminotransferase 1 (AGT1) From Arabidopsis thaliana” (Frontiers in Plant Science, 2019)

Target: the molecule itself
Test: crystal structure; crystals grown by vapor diffusion from 4.1-4.2 M sodium formate, protein 11 mg/ml in 0.2 mM PLP, 10% glycerol, 100 mM Tris-HCl pH 8.5, room temperature; without or with 20 mM L-serine; data collected at 25°C; dimer by crystallographic dyad, tetramer by noncrystallographic two-fold axis

B1: alanine:glyoxylate aminotransferase 1 (AGT1) from Arabidopsis thaliana (enzyme, UniProt Q56YA5 1-401, looked up)
chain: MDYMYGPGRHHLFVPGPVNIPEPVIRAMNRNNEDYRSPAIPALTKTLLEDVKKIFKTTSGTPFLFPTTGTGAWESALTNTLSPGDRIVSFLIGQFSLLWIDQQKRLNFNVDVVESDWGQGANLQVLASKLSQDENHTIKAICIVHNETATGVTNDISAVRTLLDHYKHPALLLVDGVSSICALDFRMDEWGVDVALTGSQKALSLPTGLGIVCASPKALEATKTSKSLKVFFDWNDYLKFYKLGTYWPYTPSIQLLYGLRAALDLIFEEGLENIIARHARLGKATRLAVEAWGLKNCTQKEEWISNTVTAVMVPPHIDGSEIVRRAWQRYNLSLGLGLNKVAGKVFRIGHLGNVNELQLLGCLAGVEMILKDVGYPVVMGSGVAAASTYLQHHIPLIPSRI
notes: alanine:glyoxylate aminotransferase 1 (AGT1), Arabidopsis thaliana, AGI At2G13360, full length (residues 2/3-401 seen in the crystal); Untagged recombinant protein from a pET28a-derived plasmid (construct as in Liepman and Olsen, 2001); Catalytic dimer; an apparent tetramer (dimer of dimers) is seen in the crystal only; also called Arabidopsis AGT1; serine:glyoxylate aminotransferase; source: E. …
stoichiometry N: 2
